# Results from publication PMC9482650, “Quantitative fragmentomics allow affinity mapping of interactomes” (Nature Communications, 2022).
# T1: DLG3_1, Q92796
# T1 sequence (Q92796 125-227, limits assumed, looked up): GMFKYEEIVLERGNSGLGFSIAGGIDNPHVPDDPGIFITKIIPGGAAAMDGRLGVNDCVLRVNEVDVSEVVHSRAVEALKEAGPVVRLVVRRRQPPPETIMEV
# T2: APBA2_1, Q99767
# T2 sequence (Q99767 563-664, limits assumed, looked up): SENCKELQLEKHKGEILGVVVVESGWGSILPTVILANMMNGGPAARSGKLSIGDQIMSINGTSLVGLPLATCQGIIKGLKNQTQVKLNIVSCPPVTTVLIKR
# T3: SNTG2, Q9NY99
# T3 sequence (Q9NY99 68-166, limits assumed, looked up): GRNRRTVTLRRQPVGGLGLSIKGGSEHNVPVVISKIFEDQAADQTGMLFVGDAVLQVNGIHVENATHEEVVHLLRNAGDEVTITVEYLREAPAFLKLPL
# T4: NHERF3_4, Q5T2W1
# T4 sequence (Q5T2W1 373-468, limits assumed, looked up): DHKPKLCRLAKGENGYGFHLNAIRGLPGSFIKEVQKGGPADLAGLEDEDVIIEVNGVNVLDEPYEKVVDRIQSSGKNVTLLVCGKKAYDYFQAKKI
# T5: DLG3_2, Q92796
# T5 sequence (Q92796 221-321, limits assumed, looked up): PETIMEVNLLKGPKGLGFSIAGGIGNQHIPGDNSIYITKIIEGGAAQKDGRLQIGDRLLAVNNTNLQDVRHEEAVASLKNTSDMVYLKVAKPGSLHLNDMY
# T6: PARD3B_1, Q8TEW8
# T6 sequence (Q8TEW8 196-299, limits assumed, looked up): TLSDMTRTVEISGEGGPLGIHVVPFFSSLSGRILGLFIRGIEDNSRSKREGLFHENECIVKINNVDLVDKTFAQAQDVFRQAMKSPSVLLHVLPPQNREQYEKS
# T7: SHANK1, Q9Y566
# T7 sequence (Q9Y566 658-767, limits assumed, looked up): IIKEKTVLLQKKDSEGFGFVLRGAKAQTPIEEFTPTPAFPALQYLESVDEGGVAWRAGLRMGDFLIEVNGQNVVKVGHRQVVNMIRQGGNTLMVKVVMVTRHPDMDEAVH
# T8: DVL3, Q92997
# T8 sequence (Q92997 244-331, limits assumed, looked up): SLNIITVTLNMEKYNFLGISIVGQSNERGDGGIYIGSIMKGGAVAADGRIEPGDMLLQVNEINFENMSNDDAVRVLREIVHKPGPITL
# T9: MPDZ_12, O75970
# T9 sequence (O75970 1857-1958, limits assumed, looked up): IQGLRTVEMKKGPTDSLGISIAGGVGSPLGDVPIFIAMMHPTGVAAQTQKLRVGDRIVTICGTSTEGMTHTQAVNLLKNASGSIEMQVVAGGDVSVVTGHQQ
# T10: RHPN1, Q8TCX5
# T10 sequence (Q8TCX5 508-602, limits assumed, looked up): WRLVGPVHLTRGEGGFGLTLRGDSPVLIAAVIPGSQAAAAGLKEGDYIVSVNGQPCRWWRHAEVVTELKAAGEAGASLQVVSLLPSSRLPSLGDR
# Molecular target: T1, DLG3_1, Q92796
# Assay: holdup assay
# Set-up: key: below the threshold = too weak to quantify, mostly under pKd 3.1 to 4
# Conditions: plain residues with an end cap or a label only (N-terminal biotin on a linker: ado-ado)
row,Binder,pKd
1,"REVVMRVTTV [MARCHF9, Q86YJ5]",4.38

# Molecular target: LNX1_1, Q8TBB1
# Sequence (Q8TBB1 261-371): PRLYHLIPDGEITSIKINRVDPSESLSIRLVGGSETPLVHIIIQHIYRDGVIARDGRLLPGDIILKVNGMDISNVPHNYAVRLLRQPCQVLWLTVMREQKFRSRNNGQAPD
# Assay: holdup assay
# Set-up: key: below the threshold = too weak to quantify, mostly under pKd 3.1 to 4
# Conditions: plain residues with an end cap or a label only (N-terminal biotin on a linker: ado-ado)
row,Binder,pKd
1,"REVVMRVTTV [MARCHF9, Q86YJ5]",4.41

# Molecular target: IL16_3, Q14005
# Sequence (Q14005 1107-1207): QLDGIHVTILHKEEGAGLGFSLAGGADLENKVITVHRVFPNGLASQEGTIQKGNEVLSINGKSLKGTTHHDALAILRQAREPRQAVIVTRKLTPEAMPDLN
# Assay: holdup assay
# Set-up: key: below the threshold = too weak to quantify, mostly under pKd 3.1 to 4
# Conditions: plain residues with an end cap or a label only (N-terminal biotin on a linker: ado-ado)
row,Binder,pKd
1,"REVVMRVTTV [MARCHF9, Q86YJ5]",below the threshold

# Molecular target: T2, APBA2_1, Q99767
# Assay: holdup assay
# Set-up: key: below the threshold = too weak to quantify, mostly under pKd 3.1 to 4
# Conditions: plain residues with an end cap or a label only (N-terminal biotin on a linker: ado-ado)
row,Binder,pKd
1,"REVVMRVTTV [MARCHF9, Q86YJ5]",below the threshold

# Molecular target: MAST2, Q6P0Q8
# Sequence (Q6P0Q8 1099-1202): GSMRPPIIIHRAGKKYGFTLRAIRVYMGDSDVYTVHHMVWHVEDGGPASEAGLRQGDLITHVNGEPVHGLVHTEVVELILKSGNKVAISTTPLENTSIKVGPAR
# Assay: holdup assay
# Set-up: key: below the threshold = too weak to quantify, mostly under pKd 3.1 to 4
# Conditions: plain residues with an end cap or a label only (N-terminal biotin on a linker: ado-ado)
row,Binder,pKd
1,"REVVMRVTTV [MARCHF9, Q86YJ5]",5.59

# Molecular target: SCRIB_1, Q14160
# Sequence (Q14160 718-814): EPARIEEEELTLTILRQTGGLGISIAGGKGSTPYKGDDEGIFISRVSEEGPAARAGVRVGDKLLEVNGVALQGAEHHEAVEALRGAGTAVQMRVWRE
# Assay: holdup assay
# Set-up: key: below the threshold = too weak to quantify, mostly under pKd 3.1 to 4
# Conditions: plain residues with an end cap or a label only (N-terminal biotin on a linker: ado-ado)
row,Binder,pKd
1,"REVVMRVTTV [MARCHF9, Q86YJ5]",4.72

# Molecular target: FRMPD2_1, Q68DX3
# Sequence (Q68DX3 770-861): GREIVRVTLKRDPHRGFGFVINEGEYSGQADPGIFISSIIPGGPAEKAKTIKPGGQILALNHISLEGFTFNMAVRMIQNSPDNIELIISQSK
# Assay: holdup assay
# Set-up: key: below the threshold = too weak to quantify, mostly under pKd 3.1 to 4
# Conditions: plain residues with an end cap or a label only (N-terminal biotin on a linker: ado-ado)
row,Binder,pKd
1,"REVVMRVTTV [MARCHF9, Q86YJ5]",below the threshold

# Molecular target: T3, SNTG2, Q9NY99
# Assay: holdup assay
# Set-up: key: below the threshold = too weak to quantify, mostly under pKd 3.1 to 4
# Conditions: plain residues with an end cap or a label only (N-terminal biotin on a linker: ado-ado)
row,Binder,pKd
1,"REVVMRVTTV [MARCHF9, Q86YJ5]",4.65

# Molecular target: LIMK2, P53671
# Sequence (P53671 143-248): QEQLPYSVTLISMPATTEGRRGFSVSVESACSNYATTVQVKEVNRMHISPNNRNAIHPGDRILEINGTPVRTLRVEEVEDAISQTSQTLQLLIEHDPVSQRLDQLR
# Assay: holdup assay
# Set-up: key: below the threshold = too weak to quantify, mostly under pKd 3.1 to 4
# Conditions: plain residues with an end cap or a label only (N-terminal biotin on a linker: ado-ado)
row,Binder,pKd
1,"REVVMRVTTV [MARCHF9, Q86YJ5]",below the threshold

# Molecular target: T4, NHERF3_4, Q5T2W1
# Assay: holdup assay
# Set-up: key: below the threshold = too weak to quantify, mostly under pKd 3.1 to 4
# Conditions: plain residues with an end cap or a label only (N-terminal biotin on a linker: ado-ado)
row,Binder,pKd
1,"REVVMRVTTV [MARCHF9, Q86YJ5]",below the threshold

# Molecular target: SCRIB_2, Q14160
# Sequence (Q14160 857-960): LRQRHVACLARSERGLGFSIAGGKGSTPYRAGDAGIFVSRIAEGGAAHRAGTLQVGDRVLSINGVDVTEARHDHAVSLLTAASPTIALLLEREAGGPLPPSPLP
# Assay: holdup assay
# Set-up: key: below the threshold = too weak to quantify, mostly under pKd 3.1 to 4
# Conditions: plain residues with an end cap or a label only (N-terminal biotin on a linker: ado-ado)
row,Binder,pKd
1,"REVVMRVTTV [MARCHF9, Q86YJ5]",4.15

# Molecular target: T5, DLG3_2, Q92796
# Assay: holdup assay
# Set-up: key: below the threshold = too weak to quantify, mostly under pKd 3.1 to 4
# Conditions: plain residues with an end cap or a label only (N-terminal biotin on a linker: ado-ado)
row,Binder,pKd
1,"REVVMRVTTV [MARCHF9, Q86YJ5]",5.23

# Molecular target: GRID2IP_2, A4D2P6
# Sequence (A4D2P6 272-370): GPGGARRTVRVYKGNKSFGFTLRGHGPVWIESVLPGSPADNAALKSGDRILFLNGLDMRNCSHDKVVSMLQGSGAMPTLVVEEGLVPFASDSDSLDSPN
# Assay: holdup assay
# Set-up: key: below the threshold = too weak to quantify, mostly under pKd 3.1 to 4
# Conditions: plain residues with an end cap or a label only (N-terminal biotin on a linker: ado-ado)
row,Binder,pKd
1,"REVVMRVTTV [MARCHF9, Q86YJ5]",4.13

# Molecular target: GRIP2_4, Q9C0E4
# Sequence (Q9C0E4 446-548): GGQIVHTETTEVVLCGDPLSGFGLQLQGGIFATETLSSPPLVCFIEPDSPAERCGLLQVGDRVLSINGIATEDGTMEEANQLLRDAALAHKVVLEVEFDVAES
# Assay: holdup assay
# Set-up: key: below the threshold = too weak to quantify, mostly under pKd 3.1 to 4
# Conditions: plain residues with an end cap or a label only (N-terminal biotin on a linker: ado-ado)
row,Binder,pKd
1,"REVVMRVTTV [MARCHF9, Q86YJ5]",below the threshold

# Molecular target: T6, PARD3B_1, Q8TEW8
# Assay: holdup assay
# Set-up: key: below the threshold = too weak to quantify, mostly under pKd 3.1 to 4
# Conditions: plain residues with an end cap or a label only (N-terminal biotin on a linker: ado-ado)
row,Binder,pKd
1,"REVVMRVTTV [MARCHF9, Q86YJ5]",below the threshold

# Molecular target: TJP1_2, Q07157
# Sequence (Q07157 181-274): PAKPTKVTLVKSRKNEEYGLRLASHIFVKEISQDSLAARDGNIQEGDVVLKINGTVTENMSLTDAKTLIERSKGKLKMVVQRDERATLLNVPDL
# Assay: holdup assay
# Set-up: key: below the threshold = too weak to quantify, mostly under pKd 3.1 to 4
# Conditions: plain residues with an end cap or a label only (N-terminal biotin on a linker: ado-ado)
row,Binder,pKd
1,"REVVMRVTTV [MARCHF9, Q86YJ5]",below the threshold

# Molecular target: Inadl_8, Q8NI35
# Sequence (Q8NI35 1425-1530): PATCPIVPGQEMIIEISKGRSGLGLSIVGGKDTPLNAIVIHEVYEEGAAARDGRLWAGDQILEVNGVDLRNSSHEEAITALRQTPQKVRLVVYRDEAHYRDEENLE
# Assay: holdup assay
# Set-up: key: below the threshold = too weak to quantify, mostly under pKd 3.1 to 4
# Conditions: plain residues with an end cap or a label only (N-terminal biotin on a linker: ado-ado)
row,Binder,pKd
1,"REVVMRVTTV [MARCHF9, Q86YJ5]",5.46

# Molecular target: T7, SHANK1, Q9Y566
# Assay: holdup assay
# Set-up: key: below the threshold = too weak to quantify, mostly under pKd 3.1 to 4
# Conditions: plain residues with an end cap or a label only (N-terminal biotin on a linker: ado-ado)
row,Binder,pKd
1,"REVVMRVTTV [MARCHF9, Q86YJ5]",below the threshold

# Molecular target: Inadl_6, Q8NI35
# Sequence (Q8NI35 1058-1167): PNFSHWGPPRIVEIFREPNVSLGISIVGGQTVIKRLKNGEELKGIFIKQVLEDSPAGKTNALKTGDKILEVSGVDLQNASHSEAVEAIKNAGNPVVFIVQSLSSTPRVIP
# Assay: holdup assay
# Set-up: key: below the threshold = too weak to quantify, mostly under pKd 3.1 to 4
# Conditions: plain residues with an end cap or a label only (N-terminal biotin on a linker: ado-ado)
row,Binder,pKd
1,"REVVMRVTTV [MARCHF9, Q86YJ5]",3.89

# Molecular target: LNX1_2, Q8TBB1
# Sequence (Q8TBB1 371-470): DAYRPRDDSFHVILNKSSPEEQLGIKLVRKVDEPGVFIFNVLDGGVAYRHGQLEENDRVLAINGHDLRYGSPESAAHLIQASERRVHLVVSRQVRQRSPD
# Assay: holdup assay
# Set-up: key: below the threshold = too weak to quantify, mostly under pKd 3.1 to 4
# Conditions: plain residues with an end cap or a label only (N-terminal biotin on a linker: ado-ado)
row,Binder,pKd
1,"REVVMRVTTV [MARCHF9, Q86YJ5]",4.56

# Molecular target: GOPC, Q9HD26
# Assay: holdup assay
# Set-up: key: below the threshold = too weak to quantify, mostly under pKd 3.1 to 4
# Conditions: plain residues with an end cap or a label only (N-terminal biotin on a linker: ado-ado)
row,Binder,pKd
1,"REVVMRVTTV [MARCHF9, Q86YJ5]",4.9

# Molecular target: MAST1, Q9Y2H9
# Sequence (Q9Y2H9 962-1065): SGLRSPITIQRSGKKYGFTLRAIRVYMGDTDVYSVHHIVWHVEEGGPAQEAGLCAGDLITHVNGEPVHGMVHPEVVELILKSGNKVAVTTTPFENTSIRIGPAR
# Assay: holdup assay
# Set-up: key: below the threshold = too weak to quantify, mostly under pKd 3.1 to 4
# Conditions: plain residues with an end cap or a label only (N-terminal biotin on a linker: ado-ado)
row,Binder,pKd
1,"REVVMRVTTV [MARCHF9, Q86YJ5]",4.65

# Molecular target: PARD3_3, Q8TEW0
# Sequence (Q8TEW0 582-685): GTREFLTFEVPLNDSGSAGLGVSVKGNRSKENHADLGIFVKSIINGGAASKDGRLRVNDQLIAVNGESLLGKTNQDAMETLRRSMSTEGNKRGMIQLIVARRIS
# Assay: holdup assay
# Set-up: key: below the threshold = too weak to quantify, mostly under pKd 3.1 to 4
# Conditions: plain residues with an end cap or a label only (N-terminal biotin on a linker: ado-ado)
row,Binder,pKd
1,"REVVMRVTTV [MARCHF9, Q86YJ5]",below the threshold

# Molecular target: GORASP2, Q9H8Y8
# Assay: holdup assay
# Set-up: key: below the threshold = too weak to quantify, mostly under pKd 3.1 to 4
# Conditions: plain residues with an end cap or a label only (N-terminal biotin on a linker: ado-ado)
row,Binder,pKd
1,"REVVMRVTTV [MARCHF9, Q86YJ5]",5.53

# Molecular target: T8, DVL3, Q92997
# Assay: holdup assay
# Set-up: key: below the threshold = too weak to quantify, mostly under pKd 3.1 to 4
# Conditions: plain residues with an end cap or a label only (N-terminal biotin on a linker: ado-ado)
row,Binder,pKd
1,"REVVMRVTTV [MARCHF9, Q86YJ5]",below the threshold

# Molecular target: T9, MPDZ_12, O75970
# Assay: holdup assay
# Set-up: key: below the threshold = too weak to quantify, mostly under pKd 3.1 to 4
# Conditions: plain residues with an end cap or a label only (N-terminal biotin on a linker: ado-ado)
row,Binder,pKd
1,"REVVMRVTTV [MARCHF9, Q86YJ5]",below the threshold

# Molecular target: T10, RHPN1, Q8TCX5
# Assay: holdup assay
# Set-up: key: below the threshold = too weak to quantify, mostly under pKd 3.1 to 4
# Conditions: plain residues with an end cap or a label only (N-terminal biotin on a linker: ado-ado)
row,Binder,pKd
1,"REVVMRVTTV [MARCHF9, Q86YJ5]",3.91
